Measured values taken from paper PMC2699591.

Biological target: GST-LB3-coil2 (Xenopus)
Assay: biosensor binding studies

6His-tagged full-length Nudel (6His-Nudel, 1-345 aa) (natural protein)
Kd: 50 µM
